How the values were obtained:
[1] = target: Recombinant soluble trimeric human BAFF (furin-cleaved human BAFF 134-285) (human, UniProt Q9Y275 134-285); test: cell-based or functional assay
[2] = target: Recombinant soluble 60-mer human BAFF (His-HuBAFF 134-285) (human, UniProt Q9Y275 134-285); test: cell-based or functional assay

| Binder | Soluble trimeric huBAFF (50 pM) Neutralization IC50 [1] [pM] | Soluble trimeric huBAFF (50 pM) Neutralization IC90 [1] [pM] | Soluble 60-mer huBAFF (4 pM) Neutralization IC50 [2] [pM] | Soluble 60-mer huBAFF (4 pM) Neutralization IC90 [2] [pM] |
| --- | --- | --- | --- | --- |
| 394F5A5 (antibody, V domains shown) VH: VTLKESGPGILQPSQTLSLTCSFSGFSLRTFGMGVGWIRQPSGKGLEWLAHIWWNDEKYYNPTLKSRLTISKDTSKNQVFLRIANVDTAVTAAYYCARIGPSITTVVEGFPYWGQGTLVTVSA VL: DIVMTQSQKFMSTTIGDRVSITCKASQNVGSAVAWYQQKPGQPPKLLIYSTSNRYTGVPDRFTGSRSGTDFTLTVSNMQSEDLADYFCQQYASYPLTFGTGTKLELK | 16 | 433 | 7 | 29 |
| 381A6A9 (antibody, V domains shown) VH: QVQLQQSGPELVKPGGSVKISCKAAGYSLTSYYIHWVKQRPGQGLEWIGLIFPGSGNSKYIEKFKGKATLTADTSSNTAYMQLSSLTSEDSAVYYCTRGDFGNYLAYWYFDVWGTGTTVTVSS VL: DIKMTQSPSSIYASLGERVTITCKASQDINSYLSWFQQKPGKSPKTLMYRANRLVDGVPSRFSGSGSGQDYSLTISSLEYEDMGNYYCLQYDEFPYTFGGGAKLEIK | 44 | 240 | 17 | 42 |
| 384D5A2 (antibody, V domains shown) VH: QVTLKESGPGILQPSQTLSLTCSFSGFSLNTYGMGVGWIRQPSGKGLEWLANIWWNDDKYYNSALKSRLAISKDASNSQVFLKISSVDTTDTATYYCAQVAATIVTTYGAWFAYWGQGTLVTVSA VL: DIQMTQSPASLSVSVGETVTITCRSSENIYSSLAWYQQKQGKSPQLLVYAATNLAKGVPSRFSGSGSGTQYSLKINSLQSEDFGSYFCQHFWGSPFAFGSGTKLEIK | 42 | 765 | 15 | 44 |
| 418F6D9 (antibody, V domains shown) VH: QVQLQQSGPELVKPGASVKLSCKASGYTFTDYSIHWVKQSPGQGLEWIGWIYPGSGNTKYNDKFKGKATMTADKSSRTVYMQLSSLTSEESAVYFCARDYRRYYAIDYWGQGTSVTVSS VL: IVLTQSSASLAVSLGQRATISCRASESVDSYGNSLMHWYQQKPGQPPKLLIYIASNLESGVPARFSGSGSRTDFTLTIDPVEADDAATYYCQQNSEDPRTFGGGTKLEIK | 38 | 491 | 27 | 154 |
| 409F12A11 (antibody, V domains shown) VH: IQLQQSGPELVKPGASMKISCKASGYTFTDKYINWVKQRPGQGLEWIGWIYPGSGNTKYNEKFKGMATLTVDTSSNTAYIHLSSLTSEDSAVYFCARGIIYYYDGSYPYALDYWGQGTSVTVSS VL: DIVLTQSPASLALSLGQRATISCRATKGVSKSGYSYMHWYQQKPGQPPKLLIYLASNLESGVPARFSGSGSGTDFTLNIHPVEEEDVATYYCQHSRELPLTFGAGTKLELK | 31 | 390 | 16 | 44 |

Second part, the binder after the results:

| Soluble trimeric huBAFF (50 pM) Neutralization IC50 [1] [pM] | Soluble trimeric huBAFF (50 pM) Neutralization IC90 [1] [pM] | Soluble 60-mer huBAFF (4 pM) Neutralization IC50 [2] [pM] | Soluble 60-mer huBAFF (4 pM) Neutralization IC90 [2] [pM] | Binder |
| --- | --- | --- | --- | --- |
| 33 | 309 | 13 | 30 | 443C11A12 (antibody, V domains shown) VH: EVQLQQSGPELVKPGASVKMSCTASGYTFTSYVIHWMKQKPGQGLEWIGYLHRNNDGTKYNEKFKVKATLTSDESSNTAYMELSSLTSEDSAVYYCARGDYSNYFYWYFDVWGAGTTVSVSS VL: DIKMTPSPSSMYASLGERVTITCKASQDINSYLSWFQQKPGKSPKTLIYRANRLVDGVPSRFSGSGSGQDYSLTISSLEYEDMGIYYCLQYDEFPYTSGGGTKLEIK |
| 23 | 294 | 10 | 26 | 435A6B3 (antibody, V domains shown) VH: EVQLQQSGPELVKPGASMKMSCKASGYTFTSYVMHWMKQKPGQGLEWIGYLNPNNDGTKYNEKFKGKATLTSDKSSSTAYMELSSLTSEDSAVYYCARGDYSNYFYWYFDVWGAGTTVSVSS VL: DIKMTPSPSSMYASLGERVTITCKASQDINRYLSWFQQKPGKSPKTLIYRANRLVDGVPSRFSGSGSGQDYSLTISSLEYEDMGIYYCLQYDEFPYTFGGGTKLEIK |
| 27 | 408 | 15 | 37 | 436H2C12 (antibody, V domains shown) VH: QVQLQQSGPELVKPGASVKLSCKASGYTFSDYTIHWVKQSPGQGLEWIGWIYPGRGNTKYNDKFKGKATMTADKSSSTAYMQLSSLTSEESAVYFCARDYRRYYAMDYWGQGTSVTVSS VL: NIVLTQSPASLAVSLGQRATISCRASESVDNYGNSFMHWYQQKPGQPPKLLISLASNLESGVPARFSGSGSRTDFTLTIDPVEADDAATYYCQQNNEDPRTFGGGTKLEIK |
| 28 | 336 | 21 | 100 | 431G5A3 (antibody, V domains shown) VH: QLQQSGPELVKPGASVKLSCKASGYTFTDYSIHWVKQSPGQGLEWIGWIYPGSDNTKYNDKFKGKASMTADKSSRTVYMHLSSLTSEESAVYFCARDYRRYYAMDYWGQGTSVTVSS VL: KIVLTQSSASLAVSLGQRATISCRASESVDRYGNSLMHWYQQKPGQPPKLLIYIASNLESGVPARFSGSGSRTDFTLTIDPVEADDAATYYCQQNNEDPRTFGGGTKLEIK |
| 26 | 266 | 10 | 27 | 436H6A9 (antibody, V domains shown) VH: QLQQSGPELVKPGASVKISCKASGYTFTDNFINWVKQRPGQGLEWIGWISPGSGNTKNNEKFKGKATVTVDTSSSTAYMQLSSLTSEDSAVYFCARGIIYYYDGTYPYALDYWGQGTSVTVSS VL: DIVLTQSPASLGVSLGQRATISCRATKGVTKSGYSYIHWYQQKPGQPPKLLIYLASNLQSGVPARFSGSGSGTDFTLNIHPVEEEDAATYYCQHSRELPLTFGAGTKLELK |
| 31 | 259 | 11 | 31 | 440E9D12 (antibody, V domains shown) VH: QVRLRESGPGLVAPSQNLFITCTVSGFSLTDYEINWVRQPPGKNLEWLGVIWTGGGTKYNSVLISRLNISKDNSKRQVFFKMTSLQTDDTAIYYCVREGRRYYAMDYWGQGTSVTVSS VL: NIVLTQSPASLPVSLGQRATMSCRASKSVDSYGTSFMHWYQHRPGQPPKLLISLASNLESGVPGRFSGSGSRTDFTLTIDPVEPDDAATYYCQQNNEDPRTFGGGTTLEIK |
| 43 | 293 | 16 | 37 | 441E6F2 (antibody, V domains shown) VH: RVQLKESGPGLVAPSQSLFITCTVSGFSLTTYEINWVRQSPGKGLEWLGVIWTGGTTKYNSAFISRLSITKDNSKSLVFLKMSSLQTDDTAIYYCVREGRRYYAMDYWGQGTSVTVSS VL: NIVLTQSPASLAVSLGQRATISCRTSESVDSYGNSFMFWFQQKPGQAPKLLIFLTSNLESGVPARFSGSGSRTDFTLTIDPVEADDAATYYCQQSNEDPRTFGGGTKLEIK |
